In paper PMC6468306 (Nucleic Acids Research, 2019):
Like-named read-outs stand apart in the source and are kept apart here.

Columns and labels:
[1] = molecular target: T1, ubiquitin (Ub) (mouse, UniProt P0CG49 1-76); assay: pull-down
[2] = molecular target: T1, ubiquitin (Ub); assay: SPR
[3] = molecular target: T1, ubiquitin (Ub); assay: SPR; remark: listed apart in the source
[4] = molecular target: M1-linked diUb (M1-Ub2) (human, UniProt P0CG47); assay: pull-down
[5] = molecular target: K48-Ub2 synthesized from K48R Ub and D77 Ub (for crystallization) (mouse, UniProt P0CG49, K48R | D77); assay: crystal structure

| Binder | binding result [1] | Kd [3] | further results |
| --- | --- | --- | --- |
| GST-fused CSB C-terminal region (residues 1386-1493) (domain or fragment) SSSLLAKMRARNHLILPERLESESGHLQEASALLPTTEHDDLLVEMRNFIAFQAHTDGQASTREILQEFESKLSASQSCVFRELLRNLCTFHRTSGGEGIWKLKPEYC | binds | – | – |
| GST-fused CSB C-terminal region (residues 1412-1493) (domain or fragment) LQEASALLPTTEHDDLLVEMRNFIAFQAHTDGQASTREILQEFESKLSASQSCVFRELLRNLCTFHRTSGGEGIWKLKPEYC | binds | – | – |
| GST-fused CSB WHD (residues 1401-1493), wild type (domain or fragment) LPERLESESGHLQEASALLPTTEHDDLLVEMRNFIAFQAHTDGQASTREILQEFESKLSASQSCVFRELLRNLCTFHRTSGGEGIWKLKPEYC | – | 35.6 µM | Kd [2]: 36.1 µM; binding result [4]: binds |
| GST-fused CSB WHD, Q1413R variant allele (domain or fragment) LPERLESESGHLREASALLPTTEHDDLLVEMRNFIAFQAHTDGQASTREILQEFESKLSASQSCVFRELLRNLCTFHRTSGGEGIWKLKPEYC | – | 51.5 µM | – |
| CSB WHD (residues 1401-1493) with the Q1413R variant allele, GST cleaved (domain or fragment) LPERLESESGHLREASALLPTTEHDDLLVEMRNFIAFQAHTDGQASTREILQEFESKLSASQSCVFRELLRNLCTFHRTSGGEGIWKLKPEYC | – | – | binding result [5]: binds |
